The values below come from article PMC4116150.

What all share (assay): purified protein
Data set [1] has as its system CC(C)(COP(=O)(O)OP(=O)(O)OC[C@H]1O[C@@H](n2cnc3c(N)ncnc32)[C@H](O)[C@@H]1OP(=O)(O)O)[C@@H](O)C(=O)NCCC(=O)NCCSC(=O)c1cc(O)c2ccccc2c1O. The note with it: 50 mM K+HEPES pH 7.5, 1 mM DTNB, 25 °C.
The subject of data set [2] is CCCCCCCCCCCC(=O)SCCNC(=O)CCNC(=O)[C@H](O)C(C)(C)COP(=O)(O)OP(=O)(O)OC[C@H]1O[C@@H](n2cnc3c(N)ncnc32)[C@H](O)[C@@H]1OP(=O)(O)O. The note with it: 50 mM K+HEPES pH 7.5, 1 mM DTNB, 25 °C.
Data set [3] concerns CC(C)(COP(=O)(O)OP(=O)(O)OC[C@H]1O[C@@H](n2cnc3c(N)ncnc32)[C@H](O)[C@@H]1OP(=O)(O)O)[C@@H](O)C(=O)NCCC(=O)NCCSC(=O)c1ccccc1. The note with it: 50 mM K+HEPES pH 7.5, 1 mM DTNB, 25 °C.
Substrate in data set [4]: CCCCCCCCCCCCCCCC(=O)SCCNC(=O)CCNC(=O)[C@H](O)C(C)(C)COP(=O)(O)OP(=O)(O)OC[C@H]1O[C@@H](n2cnc3c(N)ncnc32)[C@H](O)[C@@H]1OP(=O)(O)O
As to conditions: 50 mM K+HEPES pH 7.5, 1 mM DTNB, 25 °C.

Substrate in data set [5]: CC(C)(COP(=O)(O)OP(=O)(O)OC[C@H]1O[C@@H](n2cnc3c(N)ncnc32)[C@H](O)[C@@H]1OP(=O)(O)O)[C@@H](O)C(=O)NCCC(=O)NCCSC(=O)/C=C/c1ccc(O)cc1
The note with it: 50 mM K+HEPES pH 7.5, 1 mM DTNB, 25 °C.

Substrate in data set [6]: CC(C)(COP(=O)(O)OP(=O)(O)OC[C@H]1O[C@@H](n2cnc3c(N)ncnc32)[C@H](O)[C@@H]1OP(=O)(O)O)[C@@H](O)C(=O)NCCC(=O)NCCSC(=O)c1cc(O)c2ccccc2c1O
As to conditions: 50 mM K+HEPES pH 7.5, 1 mM DTNB, 25 °C. This is another data set of the same source.

Substrate in data set [7]: CC(C)(COP(=O)(O)OP(=O)(O)OC[C@H]1O[C@@H](n2cnc3c(N)ncnc32)[C@H](O)[C@@H]1OP(=O)(O)O)[C@@H](O)C(=O)NCCC(=O)NCCSC(=O)c1ccccc1
As to conditions: 50 mM K+HEPES pH 7.5, 1 mM DTNB, 25 °C. The source holds these as a separate data set.

Substrate in data set [8]: CC(C)=CC(=O)SCCNC(=O)CCNC(=O)[C@H](O)C(C)(C)COP(=O)(O)OP(=O)(O)OC[C@H]1O[C@@H](n2cnc3c(N)ncnc32)[C@H](O)[C@@H]1OP(=O)(O)O
The note with it: 50 mM K+HEPES pH 7.5, 1 mM DTNB, 25 °C.

Substrate in data set [9]: CCCCCCCC/C=C\CCCCCCCC(=O)SCCNC(=O)CCNC(=O)[C@H](O)C(C)(C)COP(=O)(O)OP(=O)(O)OC[C@H]1O[C@@H](n2cnc3c(N)ncnc32)[C@H](O)[C@@H]1OP(=O)(O)O
The note with it: 50 mM K+HEPES pH 7.5, 1 mM DTNB, 25 °C.

Substrate in data set [10]: CC(C(=O)O)C(=O)SCCNC(=O)CCNC(=O)[C@H](O)C(C)(C)COP(=O)(O)OP(=O)(O)OC[C@H]1O[C@@H](n2cnc3c(N)ncnc32)[C@H](O)[C@@H]1OP(=O)(O)O
The note with it: 50 mM K+HEPES pH 7.5, 1 mM DTNB, 25 °C.

Substrate in data set [11]: CC(C)(COP(=O)(O)OP(=O)(O)OC[C@H]1O[C@@H](n2cnc3c(N)ncnc32)[C@H](O)[C@@H]1OP(=O)(O)O)[C@@H](O)C(=O)NCCC(=O)NCCSC(=O)c1ccc(O)cc1
As to conditions: 50 mM K+HEPES pH 7.5, 25 °C.

Substrate in data set [12]: CCCCCCCCCCCC(=O)SCCNC(=O)CCNC(=O)[C@H](O)C(C)(C)COP(=O)(O)OP(=O)(O)OC[C@H]1O[C@@H](n2cnc3c(N)ncnc32)[C@H](O)[C@@H]1OP(=O)(O)O
As to conditions: 50 mM K+HEPES pH 7.5, 1 mM DTNB, 25 °C. This is another data set of the same source.

Substrate in data set [13]: CCCCCC(=O)SCCNC(=O)CCNC(=O)[C@H](O)C(C)(C)COP(=O)(O)OP(=O)(O)OC[C@H]1O[C@@H](n2cnc3c(N)ncnc32)[C@H](O)[C@@H]1OP(=O)(O)O
The note with it: 50 mM K+HEPES pH 7.5, 1 mM DTNB, 25 °C.

Substrate in data set [14]: CCC(=O)SCCNC(=O)CCNC(=O)[C@H](O)C(C)(C)COP(=O)(O)OP(=O)(O)OC[C@H]1O[C@@H](n2cnc3c(N)ncnc32)[C@H](O)[C@@H]1OP(=O)(O)O
As to conditions: 50 mM K+HEPES pH 7.5, 1 mM DTNB, 25 °C.

Substrate in data set [15]: CCCCCCCCCCCCCC(=O)SCCNC(=O)CCNC(=O)[C@H](O)C(C)(C)COP(=O)(O)OP(=O)(O)OC[C@H]1O[C@@H](n2cnc3c(N)ncnc32)[C@H](O)[C@@H]1OP(=O)(O)O
As to conditions: 50 mM K+HEPES pH 7.5, 1 mM DTNB, 25 °C.

Substrate in data set [16]: CCCCCCCCCCCC(=O)SCCNC(=O)CCNC(=O)[C@H](O)C(C)(C)COP(=O)(O)OP(=O)(O)OC[C@H]1O[C@@H](n2cnc3c(N)ncnc32)[C@H](O)[C@@H]1OP(=O)(O)O
Type of data set: biochemical, Escherichia coli. As to conditions: 50 mM K+HEPES pH 7.5, 1 mM DTNB, 25 °C.

The term Km denotes the substrate concentration at which the rate is half of its maximum. For orientation: kcat means the number of substrate molecules converted per active site and unit of time at saturation. A word on the kcat/Km: it is the second-order rate constant that governs catalysis at low substrate concentration. Take YbdB (Escherichia coli K-12; M68V): in [1], the Michaelis-Menten constant (Km) was found to be 5.9 ± 0.6 µM, the kcat is 0.16 ± 0.02 s⁻¹ and the kcat/Km stood at 27000 M⁻¹ s⁻¹. Moreover, in data set [2], the Michaelis-Menten constant (Km) was found to be 10.4 ± 0.3 µM, the catalytic constant (kcat) came out at 0.046 ± 0.004 s⁻¹ and the kcat/Km was found to be 4500 M⁻¹ s⁻¹. In [3], the Michaelis constant (Km) is 24 ± 2 µM, the kcat was found to be 1.8 ± 0.1 s⁻¹ and the kcat/Km amounted to 75000 M⁻¹ s⁻¹.

B1: YdiI (Escherichia coli K-12) (protein)
chain: MIWKRKITLEALNAMGEGNMVGFLDIRFEHIGDDTLEATMPVDSRTKQPFGLLHGGASVVLAESIGSVAGYLCTEGEQKVVGLEINANHVRSAREGRVRGVCKPLHLGSRHQVWQIEIFDEKGRLCCSSRLTTAIL
Take B1: the Michaelis constant (Km) in “purified protein [4]” turned out to be 1.9 ± 0.1 µM; in “purified protein [5]”, 30 ± 2 µM; in “purified protein [6]”, 8 ± 1 µM; in the data set “purified protein [7]”, 25 ± 3 µM; in the data set “purified protein [8]” it was 69.4 ± 0.4 µM; in the data set “purified protein [9]” it was 1.3 ± 0.1 µM. For the same molecule, the Km in “purified protein [10]” was 115 ± 7 µM; in “purified protein [11]” it was 9 ± 1 µM; in “purified protein [12]”, 2.2 ± 0.1 µM; in “purified protein [13]” it was 21 ± 1 µM; in “purified protein [14]”, 120 ± 10 µM; in the data set “purified protein [15]”, 1.5 ± 0.2 µM. Also, the kcat in the data set “purified protein [4]” was found to be 0.58 ± 0.01 s⁻¹; in “purified protein [5]”, 8.4 ± 0.2 s⁻¹; in the data set “purified protein [6]”, 1.6 ± 0.1 s⁻¹; in “purified protein [7]” it was 17.7 ± 0.7 s⁻¹; in the data set “purified protein [8]” it was 0.5 ± 0.02 s⁻¹; in the data set “purified protein [9]”, 0.12 ± 0.01 s⁻¹. The kcat in “purified protein [10]” came to 0.67 ± 0.03 s⁻¹; in the data set “purified protein [11]”, 5.2 ± 0.2 s⁻¹; in “purified protein [12]” it was 0.74 ± 0.01 s⁻¹; in “purified protein [13]”, 0.3 ± 0.01 s⁻¹; in the data set “purified protein [14]”, 0.21 ± 0.01 s⁻¹; in the data set “purified protein [15]” it was 0.62 ± 0.01 s⁻¹. Also, the kcat/Km in the data set “purified protein [4]” turned out to be 300000 M⁻¹ s⁻¹; in the data set “purified protein [5]” it was 280000 M⁻¹ s⁻¹; in “purified protein [6]”, 200000 M⁻¹ s⁻¹; in the data set “purified protein [7]”, 710000 M⁻¹ s⁻¹; in “purified protein [8]”, 7300 M⁻¹ s⁻¹; in “purified protein [9]”, 92000 M⁻¹ s⁻¹. Moreover, the catalytic efficiency (kcat/Km) in “purified protein [10]” was found to be 5800 M⁻¹ s⁻¹; in the data set “purified protein [11]”, 580000 M⁻¹ s⁻¹; in the data set “purified protein [12]”, 330000 M⁻¹ s⁻¹; in “purified protein [13]”, 14000 M⁻¹ s⁻¹; in “purified protein [14]”, 1700 M⁻¹ s⁻¹; in “purified protein [15]”, 410000 M⁻¹ s⁻¹.

B2: YdiI (Escherichia coli K-12; V68M) (protein)
chain: MIWKRKITLEALNAMGEGNMVGFLDIRFEHIGDDTLEATMPVDSRTKQPFGLLHGGASVVLAESIGSMAGYLCTEGEQKVVGLEINANHVRSAREGRVRGVCKPLHLGSRHQVWQIEIFDEKGRLCCSSRLTTAIL
For B2, in the data set “purified protein [16]”, the Michaelis constant (Km) is 28 ± 2 µM, the turnover number (kcat) was found to be 0.77 ± 0.03 s⁻¹ and the kcat/Km amounted to 28000 M⁻¹ s⁻¹.

B3: YbdB (Escherichia coli K-12) (protein)
chain: MIWKRHLTLDELNATSDNTMVAHLGIVYTRLGDDVLEAEMPVDTRTHQPFGLLHGGASAALAETLGSMAGFMMTRDGQCVVGTELNATHHRPVSEGKVRGVCQPLHLGRQNQSWEIVVFDEQGRRCCTCRLGTAVLG
Turning to B3, the Km in “purified protein [5]” came to 10 ± 1 µM; in the data set “purified protein [6]” it was 17 ± 1 µM; in the data set “purified protein [9]” it was 13 ± 2 µM; in the data set “purified protein [15]”, 11 ± 1 µM. The kcat in the data set “purified protein [5]” is 0.82 ± 0.02 s⁻¹; in the data set “purified protein [6]”, 0.0093 ± 0.0002 s⁻¹; in the data set “purified protein [9]”, 0.03 ± 0.002 s⁻¹; in “purified protein [15]” it was 0.078 ± 0.003 s⁻¹. Further, the kcat/Km is 82000 M⁻¹ s⁻¹ in “purified protein [5]”, 550 M⁻¹ s⁻¹ in “purified protein [6]”, 2300 M⁻¹ s⁻¹ in “purified protein [9]” and 7100 M⁻¹ s⁻¹ in the data set “purified protein [15]”.
